How the values were obtained:
[1] = molecular target: T1, recombinant human IgG1 Fc (R&D systems) (human, UniProt P01857-1 100-330 = IgG part); experiment: SPR, Biacore T200
T1 construct: domain: Fc; negative control surface; also called hIgG1-Fc

[2] = molecular target: T2, recombinant human laminin 511 (Biolamina) (human, UniProt O15230 36-3695; P07942 22-1786; P11047 34-1609); experiment: flow cytometry, human MCAM CHO cells, pan-laminin antibody
T2 construct: negative control; also called laminin 10 (α5β1γ1)

B1: Recombinant human laminin-α4 (R&D systems) (ligand, UniProt Q16363-2 826-1816, looked up)
chain: QVSMMFDGQSAVEVHSRTSMDDLKAFTSLSLYMKPPVKRPELTETADQFILYLGSKNAKKEYMGLAIKNDNLVYVYNLGTKDVEIPLDSKPVSSWPAYFSIVKIERVGKHGKVFLTVPSLSSTAEEKFIKKGEFSGDDSLLDLDPEDTVFYVGGVPSNFKLPTSLNLPGFVGCLELATLNNDVISLYNFKHIYNMDPSTSVPCARDKLAFTQSRAASYFFDGSGYAVVRDITRRGKFGQVTRFDIEVRTPADNGLILLMVNGSMFFRLEMRNGYLHVFYDFGFSGGPVHLEDTLKKAQINDAKYHEISIIYHNDKKMILVVDRRHVKSMDNEKMKIPFTDIYIGGAPPEILQSRALRAHLPLDINFRGCMKGFQFQKKDFNLLEQTETLGVGYGCPEDSLISRRAYFNGQSFIASIQKISFFDGFEGGFNFRTLQPNGLLFYYASGSDVFSISLDNGTVIMDVKGIKVQSVDKQYNDGLSHFVISSVSPTRYELIVDKSRVGSKNPTKGKIEQTQASEKKFYFGGSPISAQYANFTGCISNAYFTRVDRDVEVEDFQRYTEKVHTSLYECPIESSPLFLLHKKGKNLSKPKASQNKKGGKSKDAPSWDPVALKLPERNTPRNSHCHLSNSPRAIEHAYQYGGTANSRQEFEHLKGDFGAKSQFSIRLRTRSSHGMIFYVSDQEENDFMTLFLAHGRLVYMFNVGHKKLKIRSQEKYNDGLWHDVIFIRERSSGRLVIDGLRVLEESLPPTEATWKIKGPIYLGGVAPGKAVKNVQINSIYSFSGCLSNLQLNGASITSASQTFSVTPCFEGPMETGTYFSTEGGYVVLDESFNIGLKFEIAFEVRPRSSSGTLVHGHSVNGEYLNVHMKNGQVIVKVNNGIRDFSTSVTPKQSLCDGRWHRITVIRDSNVVQLDVDSEVNHVVGPLNPKPIDHREPVFVGGVPESLLTPRLAPSKPFTGCIRHFVIDGHPVSFSKAALVSGAVSINSCPAA
notes: also called laminin α-4 chain
binding result [1]: no binding (tested: 5-175 nM)

B2: human MCAM (melanoma cell adhesion molecule) expressed on transfected CHO cells (receptor)
chain: VPGEAEQPAPELVEVEVGSTALLKCGLSQSQGNLSHVDWFSVHKEKRTLIFRVRQGQGQSEPGEYEQRLSLQDRGATLALTQVTPQDERIFLCQGKRPRSQEYRIQLRVYKAPEEPNIQVNPLGIPVNSKEPEEVATCVGRNGYPIPQVIWYKNGRPLKEEKNRVHIQSSQTVESSGLYTLQSILKAQLVKEDKDAQFYCELNYRLPSGNHMKESREVTVPVFYPTEKVWLEVEPVGMLKEGDRVEIRCLADGNPPPHFSISKGNPSTREAEEETTNDNGVLVLEPARKEHSGRYECQAWNLDTMISLLSEPQELLVNYVSDVRVSPAAPERQEGSSLTLTCEAESSQDLEFQWLREETDQVLERGPVLQLHDLKREAGGGYRCVASVPSIPGLNRTQLVKLAIFGPPWMAFKERKVWVKENMVLNLSCEASGHPRPTISWNVNGTASEGDQDPQRVLSTLNVLVTPELLETGVECTASNDLGKNTSILFLELVNLTTLTPDSNTTTGLSTSTASPHTRANSTSTERKLPEPESRGVVIVAVIVCILVLAVLGAVLYFLYKKGKLPCRRSGKQEITLPPSRKTELVVEVKSDKLPEEMGLLQGSSGDKRAPGDQGEKYIDLRH
notes: also called hMCAM; CD146
binding result [2]: no binding (tested: 10 µg/ml)

Reference: patent US20150239980A1 (NEOTOPE BOSCIENCES, published 2015)
